B1: mTCR-G1(-) (antibody, human IgG1)
heavy: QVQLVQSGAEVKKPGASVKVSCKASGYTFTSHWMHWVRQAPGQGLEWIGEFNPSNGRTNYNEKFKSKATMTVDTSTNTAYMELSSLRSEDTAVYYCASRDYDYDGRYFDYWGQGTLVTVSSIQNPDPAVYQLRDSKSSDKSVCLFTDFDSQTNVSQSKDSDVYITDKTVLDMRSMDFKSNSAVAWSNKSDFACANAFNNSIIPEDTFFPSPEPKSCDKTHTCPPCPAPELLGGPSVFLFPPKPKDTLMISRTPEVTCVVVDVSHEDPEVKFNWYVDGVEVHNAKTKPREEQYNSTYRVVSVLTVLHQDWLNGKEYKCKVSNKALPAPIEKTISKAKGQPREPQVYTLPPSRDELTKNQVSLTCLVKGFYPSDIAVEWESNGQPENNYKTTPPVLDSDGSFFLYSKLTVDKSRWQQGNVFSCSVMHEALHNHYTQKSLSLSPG
light: DIQMTQSPSSLSASVGDRVTITCSASSSVTYMYWYQQKPGKAPKLLIYDTSNLASGVPSRFSGSGSGTDYTFTISSLQPEDIATYYCQQWSSHIFTFGQGTKVEIKKVFPPEVAVFEPSEAEISHTQKATLVCLATGFFPDHVELSWWVNGKEVHSGVSTDPQPLKEQPALNDSRYCLSSRLRVSATFWQNPRNHFRCQVQFYGLSENDEWTQDRAKPVTQIVSAEAWGRADC
notes: Matuzumab Fv in IgG-TCR format (anti-EGFR IgG-TCR control)
B2: C-mTCRpG1 (bispecific antibody, human IgG1, kappa)
heavy: not shown
light 1: not shown
light 2: B1 light
notes: Anti-EGFR (matuzumab TCR-Fab) / anti-HER-2 (pertuzumab IgG-Fab) IgG-(Fab)2, Format 1
B3: N-mTCRpG1 (bispecific antibody, human IgG1, kappa)
heavy: not shown
light 1: not shown
light 2: B1 light
notes: Anti-EGFR (matuzumab TCR-Fab) / anti-HER-2 (pertuzumab IgG) IgG-(Fab)2, Format 3; also called N-mTCRpG1ds
B4: anti-human IL-17 IgG4/κ antibody (antibody)
heavy: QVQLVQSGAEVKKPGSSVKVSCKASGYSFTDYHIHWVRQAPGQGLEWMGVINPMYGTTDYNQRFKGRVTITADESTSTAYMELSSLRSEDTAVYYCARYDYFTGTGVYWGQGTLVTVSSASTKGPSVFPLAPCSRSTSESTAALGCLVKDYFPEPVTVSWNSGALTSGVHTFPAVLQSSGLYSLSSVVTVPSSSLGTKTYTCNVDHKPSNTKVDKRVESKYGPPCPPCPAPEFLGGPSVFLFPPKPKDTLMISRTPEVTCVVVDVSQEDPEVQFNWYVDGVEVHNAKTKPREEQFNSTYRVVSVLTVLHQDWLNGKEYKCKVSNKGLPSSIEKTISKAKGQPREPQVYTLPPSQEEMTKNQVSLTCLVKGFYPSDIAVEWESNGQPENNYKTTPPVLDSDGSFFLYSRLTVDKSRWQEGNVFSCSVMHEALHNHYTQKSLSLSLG
light: DIVMTQTPLSLSVTPGQPASISCRSSRSLVHSRGNTYLHWYLQKPGQSPQLLIYKVSNRFIGVPDRFSGSGSGTDFTLKISRVEAEDVGVYYCSQSTHLPFTFGQGTKLEIKRTVAAPSVFIFPPSDEQLKSGTASVVCLLNNFYPREAKVQWKVDNALQSGNSQESVTEQDSKDSTYSLSSTLTLSKADYEKHKVYACEVTHQGLSSPVTKSFNRGEC
notes: Parent IgG4/kappa antibody of the IgG-TCR constructs TCR1-TCR8; also called Anti-IL17/IgG4; Anti-17 IgG4
B5: TCR4 (anti-IL-17 IgG-TCR, truncated Cα for CH1, truncated Cβ for CL) (antibody)
heavy: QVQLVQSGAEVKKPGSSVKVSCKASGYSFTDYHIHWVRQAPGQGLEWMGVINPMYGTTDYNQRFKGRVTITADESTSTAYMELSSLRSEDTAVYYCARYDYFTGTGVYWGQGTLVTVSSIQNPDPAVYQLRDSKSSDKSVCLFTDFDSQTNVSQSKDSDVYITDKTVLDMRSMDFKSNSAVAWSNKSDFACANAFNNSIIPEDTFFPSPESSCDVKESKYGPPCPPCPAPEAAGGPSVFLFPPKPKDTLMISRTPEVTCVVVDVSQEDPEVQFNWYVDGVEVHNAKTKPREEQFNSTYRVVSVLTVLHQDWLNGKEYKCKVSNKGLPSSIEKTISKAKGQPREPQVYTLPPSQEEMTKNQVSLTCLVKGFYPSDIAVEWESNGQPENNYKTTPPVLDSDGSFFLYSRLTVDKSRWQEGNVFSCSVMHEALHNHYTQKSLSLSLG
light: DIVMTQTPLSLSVTPGQPASISCRSSRSLVHSRGNTYLHWYLQKPGQSPQLLIYKVSNRFIGVPDRFSGSGSGTDFTLKISRVEAEDVGVYYCSQSTHLPFTFGQGTKLEIKKVFPPEVAVFEPSEAEISHTQKATLVCLATGFFPDHVELSWWVNGKEVHSGVSTDPQPLKEQPALNDSRYCLSSRLRVSATFWQNPRNHFRCQVQFYGLSENDEWTQDRAKPVTQIVSAEAWGRADCGFTS
notes: IgG-TCR format with IgG4PAA hinge-Fc
B6: TCR6 (anti-IL-17 IgG-TCR, Cα for CH1, truncated Cβ for CL) (antibody)
heavy: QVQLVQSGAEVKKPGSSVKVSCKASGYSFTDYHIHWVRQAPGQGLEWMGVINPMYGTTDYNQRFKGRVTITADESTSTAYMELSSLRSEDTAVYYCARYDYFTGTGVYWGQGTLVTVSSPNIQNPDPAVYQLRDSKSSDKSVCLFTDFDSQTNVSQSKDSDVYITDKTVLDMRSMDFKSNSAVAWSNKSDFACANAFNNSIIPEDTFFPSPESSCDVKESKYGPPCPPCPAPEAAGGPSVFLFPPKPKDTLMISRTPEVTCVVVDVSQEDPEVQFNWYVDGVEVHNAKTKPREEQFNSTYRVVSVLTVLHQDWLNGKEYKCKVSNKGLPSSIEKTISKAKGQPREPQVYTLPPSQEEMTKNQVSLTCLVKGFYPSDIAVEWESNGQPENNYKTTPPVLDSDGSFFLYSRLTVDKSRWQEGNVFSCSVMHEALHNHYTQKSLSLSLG
light: B5 light
notes: as for B5
B7: TCR2 (anti-IL-17 IgG-TCR, Cα for CH1, Cβ for CL) (antibody)
heavy: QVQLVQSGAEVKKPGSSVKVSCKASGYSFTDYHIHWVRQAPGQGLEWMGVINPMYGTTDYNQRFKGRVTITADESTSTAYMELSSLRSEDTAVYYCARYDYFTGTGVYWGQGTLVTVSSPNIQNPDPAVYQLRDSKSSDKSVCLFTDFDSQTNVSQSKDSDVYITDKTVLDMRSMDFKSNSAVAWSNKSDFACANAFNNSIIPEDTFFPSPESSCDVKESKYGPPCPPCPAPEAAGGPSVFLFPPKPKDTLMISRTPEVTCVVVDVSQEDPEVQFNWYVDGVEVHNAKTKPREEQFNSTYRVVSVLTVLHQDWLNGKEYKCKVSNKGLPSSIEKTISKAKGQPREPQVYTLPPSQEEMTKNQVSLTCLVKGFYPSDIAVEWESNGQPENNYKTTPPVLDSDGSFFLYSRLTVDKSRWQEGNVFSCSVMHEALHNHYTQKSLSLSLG
light: DIVMTQTPLSLSVTPGQPASISCRSSRSLVHSRGNTYLHWYLQKPGQSPQLLIYKVSNRFIGVPDRFSGSGSGTDFTLKISRVEAEDVGVYYCSQSTHLPFTFGQGTKLEIKEDLNKVFPPEVAVFEPSEAEISHTQKATLVCLATGFFPDHVELSWWVNGKEVHSGVSTDPQPLKEQPALNDSRYCLSSRLRVSATFWQNPRNHFRCQVQFYGLSENDEWTQDRAKPVTQIVSAEAWGRADCGFTS
notes: as for B5
B8: TCR8 (anti-IL-17 IgG-TCR, truncated Cα for CH1, Cβ for CL) (antibody)
heavy: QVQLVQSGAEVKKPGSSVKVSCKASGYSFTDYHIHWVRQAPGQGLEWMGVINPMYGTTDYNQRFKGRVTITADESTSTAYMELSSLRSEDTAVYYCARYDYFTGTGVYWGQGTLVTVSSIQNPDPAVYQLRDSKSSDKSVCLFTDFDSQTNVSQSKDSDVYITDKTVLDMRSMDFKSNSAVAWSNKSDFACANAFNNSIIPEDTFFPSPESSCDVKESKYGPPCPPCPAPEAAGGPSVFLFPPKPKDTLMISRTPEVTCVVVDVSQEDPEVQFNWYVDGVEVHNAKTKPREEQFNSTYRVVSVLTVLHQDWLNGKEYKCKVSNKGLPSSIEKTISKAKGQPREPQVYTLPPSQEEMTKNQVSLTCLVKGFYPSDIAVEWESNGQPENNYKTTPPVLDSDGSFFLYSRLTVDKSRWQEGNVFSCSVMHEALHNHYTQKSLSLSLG
light: B7 light
notes: as for B5
B9: TCR3 (anti-IL-17 IgG-TCR, truncated Cβ for CH1, truncated Cα for CL) (antibody)
heavy: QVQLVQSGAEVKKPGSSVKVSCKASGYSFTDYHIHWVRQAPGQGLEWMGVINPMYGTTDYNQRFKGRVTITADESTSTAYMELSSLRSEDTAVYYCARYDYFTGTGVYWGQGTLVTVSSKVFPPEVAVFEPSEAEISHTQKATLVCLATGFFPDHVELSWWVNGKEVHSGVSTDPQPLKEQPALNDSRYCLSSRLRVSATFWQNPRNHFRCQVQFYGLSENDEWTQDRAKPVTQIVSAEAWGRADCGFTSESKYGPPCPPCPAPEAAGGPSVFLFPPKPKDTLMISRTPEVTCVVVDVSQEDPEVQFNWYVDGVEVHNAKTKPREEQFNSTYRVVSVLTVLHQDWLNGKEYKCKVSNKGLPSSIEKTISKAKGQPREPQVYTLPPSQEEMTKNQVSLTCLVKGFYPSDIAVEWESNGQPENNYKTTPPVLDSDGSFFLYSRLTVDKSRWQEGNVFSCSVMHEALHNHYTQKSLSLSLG
light: DIVMTQTPLSLSVTPGQPASISCRSSRSLVHSRGNTYLHWYLQKPGQSPQLLIYKVSNRFIGVPDRFSGSGSGTDFTLKISRVEAEDVGVYYCSQSTHLPFTFGQGTKLEIKIQNPDPAVYQLRDSKSSDKSVCLFTDFDSQTNVSQSKDSDVYITDKTVLDMRSMDFKSNSAVAWSNKSDFACANAFNNSIIPEDTFFPSPESSCDVK

These results are taken from patent US20150183877A1 (Eli Lilly, published 2015).

The first assay deals with T1, hHER-2-Histag (Sino Biologics) (human, UniProt P04626 23-652).
T1 construct: Bought reagent; not shown: His tag
In words: EGFR/HER-2 sandwich ELISA: hEGFR-Fc coat, test compound, detection with hHER-2-Histag and anti-His-HRP. On the procedure: (§1) Specifically, clear 96-well round bottom high binding microtiter plates (Greiner) are coated overnight at 2-8° C. with 50 μL/well 1 μg/mL hEGFR-Fc (Cat. #344-ER-050, R&D systems) in a 50 mM Na₂CO₃ pH 9.4 buffer. The plate is washed 4× times with PBST and blocked with 100 μL/well casein buffer (Pierce) for 1 hr at 37° C. The plate is then washed 4× times with PBST and test compounds are added at 50 μL/well and 30 μg/mL […] and serially diluted 1:2 down the plate. The test compounds are incubated on the plate for 1 hr at 37° C. The plate is washed 4× times with PBST and 50 μL/well 0.2 μg/mL hHER-2-Histag (Sino Biologics) is added for 1 hr at 37° C. The plate is then washed 4× times with PBST followed by the addition of a 50 μL/well secondary anti-Histag-HRP antibody (PENTA-His-HRP, Qiagen) diluted 1:1000 in PBST. The secondary antibody is incubated for 1 hr at 37° C. The plate is then washed 4× times with PBST and 100 μL/well 1-component 3,3′,5,5′-Tetramethylbenzidine (TMB) substrate is added (KPL laboratories). After approximately 10 minutes, 100 μL/well 1% H₃PO₄ (in H₂O) is added to quench the reaction. Absorbance (450 nm) of every well in the plate is read using a SpectraMax UV plate reader (Molecular Devices).
In general terms: An ELISA detects its analyte on a solid surface through an enzyme-linked reagent.
On to B1, for which the binding result is “no binding (tested: 30 µg/mL (20 nM), serially diluted 1:2)”.

A further assay deals with T2, hEGFR-Fc (Cat. #344-ER-050, R&D systems) (human, UniProt P00533 25-645).
T2 construct: Bought reagent; not shown: Fc part of the bought fusion
In words: EGFR/HER-2 sandwich ELISA: hEGFR-Fc coat, compound titrated, detection with 0.2 µg/mL hHER-2-Histag and anti-His-HRP. On the procedure:
as §1
For B2, the EC50 – broadly, the concentration needed to bring the measured effect to its halfway point – is less than 1 nM.

B3 gave an EC50 of 2 nM.

A further assay deals with T3, IL-17 (SEQ ID NO:80), hIL-17 with C-terminal FlagHis tag (human).
T3 construct: The entry holds the IL-17 part and the Flag-His tag
T3 sequence (chain, as listed by the source limits assumed): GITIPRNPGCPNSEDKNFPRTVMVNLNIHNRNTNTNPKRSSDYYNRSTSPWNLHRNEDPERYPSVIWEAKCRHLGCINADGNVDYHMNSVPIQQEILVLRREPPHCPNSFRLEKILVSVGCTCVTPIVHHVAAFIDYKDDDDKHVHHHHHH
The assay is described as follows: SPR (Biacore 3000): antibody captured on anti-human Fc, saturating IL-17 injected; RU of IL-17 per RU captured, relative to WT IgG. On the procedure: The extent of HC/LC assembly is assessed using a kinetic Biacore experiment. Briefly, kinetic surface Plasmon resonance (SPR) experiments are performed using a Biacore 3000 (GE Healthcare). IgG-TCR proteins are captured onto CM5 sensorchip surfaces with an immobilized goat anti-human IgG-Fc polyclonal antibody (Jackson ImmunoResearch, Cat. #109-005-098). The goat polyclonal antibody immobilization is achieved by injecting the protein (at 50 μg/mL, pH 5) over an NHS/EDC activated sensorchip surface followed by blocking with ethanolamine (as described by manufacturer). The IgG or IgG-TCRs are captured onto the anti-human Fc sensorchip surface by injecting 10 μL of protein at 0.1 and 0.5 mg/mL using a 2 […]. Flow rates are increased to 10 μL/min followed by secondary 30 μL injections of IL-17 (SEQ ID NO:80) at 10 and 50 nM. Following a 15 minute dissociation period, the flow rate is increased to 60 μL/min and sensorchip surfaces are regenerated using two consecutive 10 μL injections of 0.1 M glycine, pH 2.0.
The experiment measures the percent activity by relating the amount of captured IgG or IgG-TCR (based on resonance units) with the secondary response generated using a saturating level of IL-17. The percent activity of each IgG-TCR is calculated based on a comparison with the WT IgG: […]
(In general: In SPR one partner is held on a chip, and binding of the other changes the refractive index at the surface.)
Regarding B4, the “Activity by kinetic Biacore (percent activity relative to WT IgG)” value is 100%.

B5: the “Activity by kinetic Biacore (percent activity relative to WT IgG)” value turned out to be 54%.

Consider B6, for which the “Activity by kinetic Biacore (percent activity relative to WT IgG)” value is 35%.

As to B7, the “Activity by kinetic Biacore (percent activity relative to WT IgG)” value was found to be 35%.

B8: the “Activity by kinetic Biacore (percent activity relative to WT IgG)” value was 48%.

With B9, the “Activity by kinetic Biacore (percent activity relative to WT IgG)” value was 17%.
